Where a chain is given by its changes, count along the chain named. In names and notes the source's numbering stands. Several values for one entry are separate records, joined by “and”; a condition that tells them apart may be missing. Equal entries are not always repeated. Where two headings read alike, the source gives them in different places.
B1: chimeric Fab antibody of 65D3 (wild type) (Fab, V domains shown)
VH: QSLEESGGRLVTPGGSLTLTCTVSGFSLSTHDISWVRQAPGKGLEWIGVIARRGSTYYASWAKGRFTISKTSTTVDLKITSPTIEDTATYFCAREEFDFWGQGTLVTVSS
VL: AVLTQTASPVSAAVGGTVTISCQSSQSVYNNKELSWFQQKPGQPPKLLISYASTLASGVPSRFKGSGSGTQFTLTISDLECDDAATYYCLGGYASTIDMWAFGGGTEVVVK
B2: 65D3 mutant IgG variant 3 (S55W-VH + VL) (antibody)
heavy: QSLEESGGRLVTPGGSLTLTCTVSGFSLSTHDISWVRQAPGKGLEWIGVIARRGWTYYASWAKGRFTISKTSTTVDLKITSPTIEDTATYFCAREEFDFWGQGTLVTVSSGQPKAPSVFPLAPCCGDTPSSTVTLGCLVKGYLPEPVTVTWNSGTLTNGVRTFPSVRQSSGLYSLSSVVSVTSSSQPVTCNVAHPATNTKVDKTVAPSTCSKPTCPPPELLGGPSVFIFPPKPKDTLMISRTPEVTCVVVDVSQDDPEVQFTWYINNEQVRTARPPLREQQFNSTIRVVSTLPIAHQDWLRGKEFKCKVHNKALPAPIEKTISKARGQPLEPKVYTMGPPREELSSRSVSLTCMINGFYPSDISVEWEKNGKAEDNYKTTPAVLDSDGSYFLYSKLSVPTSEWQRGDVFTCSVMHEALHNHYTQKSISRSPGK
VL: B1 VL
B3: 65D3 mutant IgG variant 1 (S55W&G64K-VH + S57T-VL) (antibody)
heavy: B2 heavy with G64K
light: AVLTQTASPVSAAVGGTVTISCQSSQSVYNNKELSWFQQKPGQPPKLLISYASTLATGVPSRFKGSGSGTQFTLTISDLECDDAATYYCLGGYASTIDMWAFGGGTEVVVKGDPVAPTVLIFPPAADQVATGTVTIVCVANKYFPDVTVTWEVDGTTQTTGIENSKTPQNSADCTYNLSSTLTLTSTQYNSHKEYTCKVTQGTTSVVQSFNRGDC

Assays:
[1] = molecular target: Peptide 1593 (…) (Mycobacterium tuberculosis)
[2] = molecular target: Peptide 1593 (…) (Mycobacterium tuberculosis); assay: ELISA, Fab supernatant on coated peptide
[3] = molecular target: Peptide 1593 (…) (Mycobacterium tuberculosis); assay: SPR (Biacore), IgG amine-coupled, peptide as analyte
[4] = molecular target: Peptide 1593 (…) (Mycobacterium tuberculosis); remark: listed apart in the source

Binder | OD450 nm (single well) [1] | OD450 at 0.00390625 ug/ml coated antigen [2] | OD450 at 0.0078125 ug/ml coated antigen [2] | OD450 at 0.00953125 ug/ml coated antigen (so in the source) [2] [OD450] | OD450 at 0.015625 ug/ml coated antigen [2] | OD450 at 0.03125 ug/ml coated antigen [2] | OD450 at 0.0625 ug/ml coated antigen [2] | OD450 at 0.125 ug/ml coated antigen [2] | OD450 at 0.25 ug/ml coated antigen [2] | OD450 at 0.5 ug/ml coated antigen [2] | OD450 at 1 ug/ml coated antigen [2] | Kd [3] [nM] | koff [3] [s⁻¹] | kon [3] [M⁻¹ s⁻¹] | Kd [4] [nM]
B1 | 0.879 and 0.794 | 0.133 OD450 and 0.147 OD450 | 0.319 OD450 and 0.341 OD450 | 0.084 | 0.73 OD450 and 0.789 OD450 | 1.21 OD450 and 1.37 OD450 | 1.71 OD450 and 1.8 OD450 | 1.94 OD450 and 2.04 OD450 | 2.18 OD450 and 2.23 OD450 | 2.27 OD450 and 2.25 OD450 | 2.3 OD450 and 2.31 OD450 | – | – | – | –
B2 | – | – | – | – | – | – | – | – | – | – | – | 2.03 | 0.00026 | 128000 | –
B3 | – | – | – | – | – | – | – | – | – | – | – | 2.6 | 0.00027 | 104000 | 2.7

Source: patent US12649778
